Assays:
Type in all cases: in vivo
PCSK9 [1] = target: T1, PCSK9 (Homo sapiens, UniProt Q8NBP7); assay: Example 2 clinical study, single escalating IV doses: fasting lipids
T1 construct: PCSK9 antagonist antibody that antagonizes circulating PCSK9; endogenous in cells; host or cells: human subjects in clinical trials (in vivo, circulating PCSK9)
Procedure: (§1) The study entailed a randomized, placebo-controlled, ascending, single dose study of L1L3. The subjects, investigator, and site personnel (except site personnel responsible for drug preparation) were blinded to treatment assignments, as was the CRO designee; while the Sponsor clinical research team was unblinded. The study was conducted in 6 planned cohorts of 8 subjects per cohort in an effort to seek a maximum tolerated dose or MTD (total of approximately 48 subjects). […] Doses were administered following an overnight fast as an intravenous infusion over 60 minutes. […] Infusions will be administered as a single infusion over 60 minutes.
Change in serum lipids (total cholesterol, LDL, HDL, Triglycerides, Non-HDL-C and Apoprotein B) were assessed.
Collection of fasting lipid profile was performed after at least a 10-hour fast (total cholesterol, LDL, HDL, Non-HDL Cholesterol, Apo B and triglycerides).

[2] = Example 2 clinical study: safety and adverse events; conditions: single IV 0.3-18 mg/kg
Procedure: as §1
The dosing schedule was adjusted to allow administration of lower, intermediate, or higher doses to obtain a maximum tolerated dose and no effect dose. Each subject enrolled into the study, regardless of cohort assignment, received only one dose of study drug during their study participation.

PCSK9 [3] = target: T1, PCSK9; assay: Example 3 clinical study, single IV dose on stable atorvastatin: fasting LDL-C
Source text: Subjects who have hypertension and are controlled on stable dosages of anti-hypertensive medications could be included. The study included both genders, with a minimum age limit of 18 and a maximum age limit of 80.

T1 sequence (Q8NBP7 153-692): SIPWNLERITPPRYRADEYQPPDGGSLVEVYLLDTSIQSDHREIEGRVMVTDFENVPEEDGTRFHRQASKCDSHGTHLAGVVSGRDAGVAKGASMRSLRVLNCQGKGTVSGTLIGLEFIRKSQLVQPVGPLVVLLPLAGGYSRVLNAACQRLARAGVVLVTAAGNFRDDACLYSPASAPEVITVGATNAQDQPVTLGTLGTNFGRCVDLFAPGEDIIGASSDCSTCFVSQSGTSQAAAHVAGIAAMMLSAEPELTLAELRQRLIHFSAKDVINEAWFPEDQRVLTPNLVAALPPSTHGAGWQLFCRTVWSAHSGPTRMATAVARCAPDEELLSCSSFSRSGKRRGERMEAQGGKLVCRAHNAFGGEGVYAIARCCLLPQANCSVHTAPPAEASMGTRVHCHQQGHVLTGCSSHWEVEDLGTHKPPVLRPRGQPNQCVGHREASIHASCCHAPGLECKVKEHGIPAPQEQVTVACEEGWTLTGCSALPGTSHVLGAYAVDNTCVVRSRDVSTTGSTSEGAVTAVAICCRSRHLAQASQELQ
T1 sequence (Q8NBP7 31-152 partner limits assumed): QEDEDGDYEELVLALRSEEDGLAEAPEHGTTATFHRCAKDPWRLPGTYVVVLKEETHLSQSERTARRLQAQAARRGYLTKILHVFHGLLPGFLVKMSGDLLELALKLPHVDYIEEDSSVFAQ

B1: L1L3: humanized (<5% murine residues) monoclonal PCSK9 antagonist antibody that binds to secreted PCSK9; VH SEQ ID NO: 11, VL SEQ ID NO: 12 (antibody, V domains shown)
VH: QVQLVQSGAEVKKPGASVKVSCKASGYTFTSYYMHWVRQAPGQGLEWMGEISPFGGRTNYNEKFKSRVTMTRDTSTSTVYMELSSLRSEDTAVYYCARERPLYASDLWGQGTTVTVSS
VL: DIQMTQSPSSLSASVGDRVTITCRASQGISSALAWYQQKPGKAPKLLIYSASYRYTGVPSRFSGSGSGTDFTFTISSLQPEDIATYYCQQRYSLWRTFGQGTKLEIK
modifications: heavy chain variable region; light chain variable region
mean percentage change from baseline of fasting LDL-C (PCSK9 [1]; single IV 3 mg/kg, visit day 43): −27.56% | mean percentage change from baseline of fasting LDL-C (PCSK9 [1]; single IV 6 mg/kg, visit day 1): 0.000% | mean percentage change from baseline of fasting LDL-C (PCSK9 [1]; single IV 6 mg/kg, visit day 2): −1.44% | mean percentage change from baseline of fasting LDL-C (PCSK9 [1]; single IV 6 mg/kg, visit day 3): −9.23% | mean percentage change from baseline of fasting LDL-C (PCSK9 [1]; single IV 6 mg/kg, visit day 4): −18.80% | mean percentage change from baseline of fasting LDL-C (PCSK9 [1]; single IV 6 mg/kg, visit day 8): −43.77% | mean percentage change from baseline of fasting LDL-C (PCSK9 [1]; single IV 6 mg/kg, visit day 15): −61.52% | mean percentage change from baseline of fasting LDL-C (PCSK9 [1]; single IV 6 mg/kg, visit day 22): −68.92% | mean percentage change from baseline of fasting LDL-C (PCSK9 [1]; single IV 6 mg/kg, visit day 29): −64.19% | mean percentage change from baseline of fasting LDL-C (PCSK9 [1]; single IV 6 mg/kg, visit day 36): −67.70% | mean percentage change from baseline of fasting LDL-C (PCSK9 [1]; single IV 6 mg/kg, visit day 43): −64.18% | mean percentage change from baseline of fasting LDL-C (PCSK9 [1]; single IV 6 mg/kg, visit day 50): −49.17% | mean percentage change from baseline of fasting LDL-C (PCSK9 [1]; single IV 6 mg/kg, visit day 57): −36.12% | mean percentage change from baseline of fasting LDL-C (PCSK9 [1]; single IV 12 mg/kg, visit day 1): 0.000% | mean percentage change from baseline of fasting LDL-C (PCSK9 [1]; single IV 12 mg/kg, visit day 2): −8.26% | mean percentage change from baseline of fasting LDL-C (PCSK9 [1]; single IV 12 mg/kg, visit day 3): −14.05% | mean percentage change from baseline of fasting LDL-C (PCSK9 [1]; single IV 12 mg/kg, visit day 4): −23.23% | mean percentage change from baseline of fasting LDL-C (PCSK9 [1]; single IV 12 mg/kg, visit day 8): −37.96% | mean percentage change from baseline of fasting LDL-C (PCSK9 [1]; single IV 12 mg/kg, visit day 15): −66.25% | mean percentage change from baseline of fasting LDL-C (PCSK9 [1]; single IV 12 mg/kg, visit day 22): −59.79% | mean percentage change from baseline of fasting LDL-C (PCSK9 [1]; single IV 12 mg/kg, visit day 29): −74.67% | mean percentage change from baseline of fasting LDL-C (PCSK9 [1]; single IV 12 mg/kg, visit day 36): −65.23% | mean percentage change from baseline of fasting LDL-C (PCSK9 [1]; single IV 12 mg/kg, visit day 43): −69.31% | mean percentage change from baseline of fasting LDL-C (PCSK9 [1]; single IV 12 mg/kg, visit day 50): −56.08% | mean percentage change from baseline of fasting LDL-C (PCSK9 [1]; single IV 12 mg/kg, visit day 57): −63.10% | mean percentage change from baseline of fasting LDL-C (PCSK9 [1]; single IV 18 mg/kg, visit day 1): 0.000% | mean percentage change from baseline of fasting LDL-C (PCSK9 [1]; single IV 18 mg/kg, visit day 2): −11.52% | mean percentage change from baseline of fasting LDL-C (PCSK9 [1]; single IV 18 mg/kg, visit day 3): −22.43% | mean percentage change from baseline of fasting LDL-C (PCSK9 [1]; single IV 18 mg/kg, visit day 4): −34.36% | mean percentage change from baseline of fasting LDL-C (PCSK9 [1]; single IV 18 mg/kg, visit day 8): −43.70% | mean percentage change from baseline of fasting LDL-C (PCSK9 [1]; single IV 18 mg/kg, visit day 15): −82.89% | mean percentage change from baseline of fasting LDL-C (PCSK9 [1]; single IV 18 mg/kg, visit day 22): −72.97% | mean percentage change from baseline of fasting LDL-C (PCSK9 [1]; single IV 18 mg/kg, visit day 29): −67.40% | mean percentage change from baseline of fasting LDL-C (PCSK9 [1]; single IV 18 mg/kg, visit day 36): −61.47% | mean percentage change from baseline of fasting LDL-C (PCSK9 [1]; single IV 18 mg/kg, visit day 43): −80.21% | Fasting triglyceride (TGs) levels (PCSK9 [1]; single IV 0.3-18 mg/kg, baseline 173 mg/dL): remained unchanged | High density lipoprotein cholesterol (HDL-C) levels (PCSK9 [1]; single IV 0.3-18 mg/kg, baseline about 49 mg/dL): did not change significantly | Discontinuation due to treatment emergent adverse events (TEAEs) [2]: no subjects discontinued | Intensity of TEAEs [2]: majority of TEAEs were mild in intensity; none were severe | Serious adverse events [2]: no serious adverse events occurred | mean percent change from baseline of fasting LDL-C (PCSK9 [3]; 0.5 mg/kg L1L3, atorvastatin 40 mg daily, Day 0): 0.0% | mean percent change from baseline of fasting LDL-C (PCSK9 [3]; 0.5 mg/kg L1L3, atorvastatin 40 mg daily, Day 1): −28.8% | mean percent change from baseline of fasting LDL-C (PCSK9 [3]; 0.5 mg/kg L1L3, atorvastatin 40 mg daily, Day 2): −48.5% | mean percent change from baseline of fasting LDL-C (PCSK9 [3]; 0.5 mg/kg L1L3, atorvastatin 40 mg daily, Day 3): −66.7% | mean percent change from baseline of fasting LDL-C (PCSK9 [3]; 0.5 mg/kg L1L3, atorvastatin 40 mg daily, Day 11): −34.4% | mean percent change from baseline of fasting LDL-C (PCSK9 [3]; 0.5 mg/kg L1L3, atorvastatin 40 mg daily, Day 18): 9.0% | mean percent change from baseline of fasting LDL-C (PCSK9 [3]; 0.5 mg/kg L1L3, atorvastatin 40 mg daily, Day 25): 23.3% | mean percent change from baseline of fasting LDL-C (PCSK9 [3]; 0.5 mg/kg L1L3, atorvastatin 40 mg daily, Day 32): 14.8% | mean percent change from baseline of fasting LDL-C (PCSK9 [3]; 0.5 mg/kg L1L3, atorvastatin 40 mg daily, Day 39): 21.2% | mean percent change from baseline of fasting LDL-C (PCSK9 [3]; 0.5 mg/kg L1L3, atorvastatin 40 mg daily, Day 46): 17.0% | mean percent change from baseline of fasting LDL-C (PCSK9 [3]; 0.5 mg/kg L1L3, atorvastatin 40 mg daily, Day 53): 27.9% | mean percent change from baseline of fasting LDL-C (PCSK9 [3]; 0.5 mg/kg L1L3, atorvastatin 40 mg daily, Day 60): 30.1% | Day on which the maximum LDL-C lowering effect was observed (PCSK9 [3]; 0.5 mg/kg L1L3, atorvastatin 40 mg, day following L1L3 administration): 3 days | mean percent change from baseline of fasting LDL-C (PCSK9 [3]; 4 mg/kg L1L3, atorvastatin 40 mg daily, Day 0): 0.0% | mean percent change from baseline of fasting LDL-C (PCSK9 [3]; 4 mg/kg L1L3, atorvastatin 40 mg daily, Day 1): −20.9% | mean percent change from baseline of fasting LDL-C (PCSK9 [3]; 4 mg/kg L1L3, atorvastatin 40 mg daily, Day 2): −38.4% | mean percent change from baseline of fasting LDL-C (PCSK9 [3]; 4 mg/kg L1L3, atorvastatin 40 mg daily, Day 3): −43.3% | mean percent change from baseline of fasting LDL-C (PCSK9 [3]; 4 mg/kg L1L3, atorvastatin 40 mg daily, Day 11): −64.6% | mean percent change from baseline of fasting LDL-C (PCSK9 [3]; 4 mg/kg L1L3, atorvastatin 40 mg daily, Day 18): −73.2% | mean percent change from baseline of fasting LDL-C (PCSK9 [3]; 4 mg/kg L1L3, atorvastatin 40 mg daily, Day 25): −70.8% | mean percent change from baseline of fasting LDL-C (PCSK9 [3]; 4 mg/kg L1L3, atorvastatin 40 mg daily, Day 32): −69.9% | mean percent change from baseline of fasting LDL-C (PCSK9 [3]; 4 mg/kg L1L3, atorvastatin 40 mg daily, Day 39): −45.1% | mean percent change from baseline of fasting LDL-C (PCSK9 [3]; 4 mg/kg L1L3, atorvastatin 40 mg daily, Day 46): −19.2% | mean percent change from baseline of fasting LDL-C (PCSK9 [3]; 4 mg/kg L1L3, atorvastatin 40 mg daily, Day 53): −3.6% | mean percent change from baseline of fasting LDL-C (PCSK9 [3]; 4 mg/kg L1L3, atorvastatin 40 mg daily, Day 60): 7.1% | Day through which the maximum LDL-C lowering effect was observed (PCSK9 [3]; 4 mg/kg L1L3, atorvastatin 40 mg, day following L1L3 administration): 32 days

Source: patent US20140161821A1, “TREATMENT WITH ANTI-PCSK9 ANTIBODIES” (PFIZER INC., priority 2011, published 2014)
